{
  "source": "paper doi:10.1101/2022.06.02.494603",
  "about": "(bioRxiv, 2022)",
  "target": "optineurin, C-terminal myc-FLAG-tagged (UniProt Q96CV9 1-577)",
  "sequence (Q96CV9 whole entry)": "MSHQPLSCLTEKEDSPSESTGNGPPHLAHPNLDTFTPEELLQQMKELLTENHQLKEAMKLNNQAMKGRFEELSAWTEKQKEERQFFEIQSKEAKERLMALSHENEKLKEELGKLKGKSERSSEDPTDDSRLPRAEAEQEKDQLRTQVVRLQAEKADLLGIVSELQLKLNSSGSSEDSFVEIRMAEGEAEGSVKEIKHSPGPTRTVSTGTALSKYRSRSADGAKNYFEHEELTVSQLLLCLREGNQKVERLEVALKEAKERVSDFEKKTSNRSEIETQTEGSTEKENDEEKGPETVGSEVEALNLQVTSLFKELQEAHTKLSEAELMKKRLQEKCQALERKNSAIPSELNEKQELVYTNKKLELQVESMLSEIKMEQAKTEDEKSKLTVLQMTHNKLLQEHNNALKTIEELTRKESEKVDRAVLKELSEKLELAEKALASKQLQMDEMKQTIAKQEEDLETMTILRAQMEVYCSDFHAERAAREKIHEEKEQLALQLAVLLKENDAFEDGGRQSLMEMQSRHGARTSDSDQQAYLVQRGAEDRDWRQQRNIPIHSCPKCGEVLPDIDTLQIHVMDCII",
  "test": "co-IP",
  "data": [
    {"binder": "TBK1 T4A, untagged (natural protein, human, UniProt Q9UHD2 1-729, looked up) MQSASNHLWLLSDILGQGATANVFRGRHKKTGDLFAIKVFNNISFLRPVDVQMREFEVLKKLNHKNIVKLFAIEEETTTRHKVLIMEFCPCGSLYTVLEEPSNAYGLPESEFLIVLRDVVGGMNHLRENGIVHRDIKPGNIMRVIGEDGQSVYKLTDFGAARELEDDEQFVSLYGTEEYLHPDMYERAVLRKDHQKKYGATVDLWSIGVTFYHAATGSLPFRPFEGPRRNKEVMYKIITGKPSGAISGVQKAENGPIDWSGDMPVSCSLSRGLQVLLTPVLANILEADQEKCWGFDQFFAETSDILHRMVIHVFSLQQMTAHKIYIHSYNTATIFHELVYKQTKIISSNQELIYEGRRLVLEPGRLAQHFPKTTEENPIFVVSREPLNTIGLIYEKISLPKVHPRYDLDGDASMAKAITGVVCYACRIASTLLLYQELMRKGIRWLIELIKDDYNETVHKKTEVVITLDFCIRNIEKTVKVYEKLMKINLEAAELGEISDIHTKLLRLSSSQGTIETSLQDIDSRLSPGGSLADAWAHQEGTHPKDRNVEKLQVLLNCMTEIYYQFKKDKAERRLAYNEEQIHKFDKQKLYYHATKAMTHFTDECVKKYEAFLNKSEEWIRKMLHLRKQLLSLTNQCFDIEEEVSKYQEYTNELQETLPQKMFTASSGIKHTMTPIYPSSNTLVEMTLGMKKLKEEMEGVVKELAENNHILERFGSLTMDGGLRNVDCL", "values": [
      {"measurement": "TBK1 bound to OPTN relative to wild type", "result": "1.93 relative to TBK1 WT"}
    ]}
  ]
}
